Paper PMC5282575, “The crystal structure of the Sgt1-Skp1 complex: the link between Hsp90 and both SCF E3 ubiquitin ligases and kinetochores” (Scientific Reports, 2017)
Substitutions are numbered along the chain they refer to.

B1: Sgt1 TPR domain construct (Sgt1TPR, residues 1-150) (domain or fragment, S. cerevisiae, UniProt Q08446 1-150, looked up)
chain: MPVEKDLKTAYKALYDEKEPLKALHLYDEILKGSPTNLTALIFKAACLEKLYFGFSDWHSDATMENAKELLDKALMTAEGRGDRSKIGLVNFRYFVHFFNIKDYELAQSYFKKAKNLGYVDDTLPLWEDRLETKLNKKNKKQKDSTNKHT
notes: Sgt1, S. cerevisiae, TPR domain, residues 1-150, untagged, cloned in MCSII of pColA-Duet; Treated as a dimer in the ITC fit; forms concentration-dependent trimers; three copies in the asymmetric unit; SeMet-Sgt1TPR was used for the SAD data set; source: E. coli T7 Express LysY/Iq, purified (cation exchange, gel filtration)
B2: full-length Sgt1 (untagged), Saccharomyces cerevisiae (natural protein, S. cerevisiae, UniProt Q08446 1-395, looked up)
chain: MPVEKDLKTAYKALYDEKEPLKALHLYDEILKGSPTNLTALIFKAACLEKLYFGFSDWHSDATMENAKELLDKALMTAEGRGDRSKIGLVNFRYFVHFFNIKDYELAQSYFKKAKNLGYVDDTLPLWEDRLETKLNKKNKKQKDSTNKHTIKPVESIENRGDNNSSHSPISPLKIETAPQESPKFKIDWYQSSTSVTISLFTVNLPESKEQVNIYISPNDRRTLSISYQVPKSGSEFQYNAKLSHEVDPKAVSLKIFPKKLEITLSKIDSTQWKKLEEDILTESSRLSDEGKNSDSATRLLSAETASKERLSYPSSSKKKIDWSKLDIDEEADEEAGSADSFFQKLYAGADPDTKRAMMKSFIESNGTALSTDWEDVSKGTVKTSPPEGMEPKHW
notes: Sgt1, S. cerevisiae, full length, untagged, cloned in MCSII of pColA-Duet; Dimer at working concentrations by SV-AUC and native MS, with minor monomer and trimer; also called Sgt1 FL; wt; source: E. coli BL21 Star (DE3), purified (cation exchange, gel filtration)
B3: His6-tagged full-length Sgt1 D61R (natural protein, S. cerevisiae, UniProt Q08446 1-395, looked up)
chain: B2 chain with D61R
notes: Sgt1, S. cerevisiae, full length, in pET28a, Asp61 to Arg; source: E. coli T7 Express LysY/Iq, purified (HisTrap FF, gel filtration); not shown: His6, N-terminal, kept
B4: Skp1∆1 (Skp1 with residues 65-74 deleted) (natural protein, S. cerevisiae, UniProt P52286 1-194, looked up)
chain: MVTSNVVLVSGEGERFTVDKKIAERSLLLKNYLNDMHDSNLQNNSDSESDSDSETNHKSKDNNNIVMPVPNVRSSVLQKVIEWAEHHRDSNFPDEDDDDSRKSAPVDSWDREFLKVDQEMLYEIILAANYLNIKPLLDAGCKVVAEMIRGRSPEEIRRTFNIVNDFTPEEEAAIRRENEWAEDR
notes: Skp1, S. cerevisiae, in the context of the full-length protein; the LCR (36-64) is retained, residues 65-74 are deleted; also called Skp1Δ1; Skp1d1; source: E. coli, purified (anion exchange, gel filtration)

What was measured:
[1] = target: full-length Sgt1 and Sgt1TPR (S. cerevisiae); experiment: ITC; VP-ITC, 25 °C, 20 mM HEPES pH 7.0, 150 mM NaCl, 1 mM β-mercaptoethanol; 130-160 μM Skp1 injected into 6-13 μM Sgt1 dimer; single site model assuming dimeric Sgt1
[2] = target: the molecule itself; experiment: AUC; sedimentation velocity, 20 °C, absorbance at 280 nm, continuous c(s) fit; Sgt1 at 4.5-22.3 μM monomer (His6-tagged WT and H59A at 11.2 μM)
[3] = target: Skp1∆1 (Skp1 with residues 65-74 deleted) (S. cerevisiae, UniProt P52286 1-194, residues 65–74 are deleted); experiment: ITC
[4] = target: the molecule itself; experiment: native MS; nano-electrospray, samples exchanged into 150 mM ammonium acetate pH 7; 4.5, 11.2 and 22.3 μM; spectra deconvoluted with Amphitrite
[5] = target: B2; experiment: ITC; VP-ITC, 25 °C, 20 mM HEPES pH 7.0, 150 mM NaCl, 1 mM β-mercaptoethanol; 130-160 μM Skp1 injected into 6-13 μM Sgt1 dimer; single site model assuming dimeric Sgt1; details: both partners purified

Molecule: full-length Skp1 (untagged), Saccharomyces cerevisiae (from UniProt P52286 1-194) (natural protein)
- Kd [1]: 600 to 700 nM

Molecule: B1
- stoichiometry N [2]: 3

Molecule: B2
- Kd [3]: 3900 nM
- stoichiometry N [2]: 2

Molecule: B3
- stoichiometry N [4]: 2

Molecule: B4
- binding result [5]: binds
